Molecular target: Integrin alpha-v beta-3 (UniProt P06756+P05106)
Test: filter
Conditions: BzdU replaces dT in the extended strand, HEPES, NaCl, KCl, MgCl2 buffer, 37 C

Chain of Integrin alpha-v beta-3 (P06756 31-992, chain 1 of 2): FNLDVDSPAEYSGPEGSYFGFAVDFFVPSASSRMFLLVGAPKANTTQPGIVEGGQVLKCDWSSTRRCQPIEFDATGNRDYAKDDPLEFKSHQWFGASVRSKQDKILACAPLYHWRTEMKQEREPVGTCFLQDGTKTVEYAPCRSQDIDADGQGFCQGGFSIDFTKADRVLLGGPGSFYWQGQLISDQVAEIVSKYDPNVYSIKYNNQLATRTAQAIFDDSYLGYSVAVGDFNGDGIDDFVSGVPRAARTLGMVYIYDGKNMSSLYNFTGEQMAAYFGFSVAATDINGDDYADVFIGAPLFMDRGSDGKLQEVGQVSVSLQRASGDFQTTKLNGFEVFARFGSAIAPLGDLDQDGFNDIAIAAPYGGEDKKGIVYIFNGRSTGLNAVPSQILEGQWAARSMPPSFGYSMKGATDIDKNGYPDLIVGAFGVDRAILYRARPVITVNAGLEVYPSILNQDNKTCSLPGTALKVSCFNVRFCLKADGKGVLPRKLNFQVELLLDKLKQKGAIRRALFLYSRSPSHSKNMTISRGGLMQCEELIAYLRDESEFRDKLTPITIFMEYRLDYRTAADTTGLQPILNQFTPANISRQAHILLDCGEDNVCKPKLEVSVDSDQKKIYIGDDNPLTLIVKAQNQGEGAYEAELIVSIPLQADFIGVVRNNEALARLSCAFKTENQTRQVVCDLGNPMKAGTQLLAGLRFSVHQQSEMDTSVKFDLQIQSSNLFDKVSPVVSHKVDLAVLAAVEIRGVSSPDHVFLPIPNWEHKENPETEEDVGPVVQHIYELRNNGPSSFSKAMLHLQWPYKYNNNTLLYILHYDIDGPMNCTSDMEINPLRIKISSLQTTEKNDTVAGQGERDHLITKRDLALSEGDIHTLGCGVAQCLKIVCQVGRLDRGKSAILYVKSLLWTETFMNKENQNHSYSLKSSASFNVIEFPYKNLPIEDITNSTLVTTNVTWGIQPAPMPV
Chain of Integrin alpha-v beta-3 (P05106 27-718, chain 2 of 2): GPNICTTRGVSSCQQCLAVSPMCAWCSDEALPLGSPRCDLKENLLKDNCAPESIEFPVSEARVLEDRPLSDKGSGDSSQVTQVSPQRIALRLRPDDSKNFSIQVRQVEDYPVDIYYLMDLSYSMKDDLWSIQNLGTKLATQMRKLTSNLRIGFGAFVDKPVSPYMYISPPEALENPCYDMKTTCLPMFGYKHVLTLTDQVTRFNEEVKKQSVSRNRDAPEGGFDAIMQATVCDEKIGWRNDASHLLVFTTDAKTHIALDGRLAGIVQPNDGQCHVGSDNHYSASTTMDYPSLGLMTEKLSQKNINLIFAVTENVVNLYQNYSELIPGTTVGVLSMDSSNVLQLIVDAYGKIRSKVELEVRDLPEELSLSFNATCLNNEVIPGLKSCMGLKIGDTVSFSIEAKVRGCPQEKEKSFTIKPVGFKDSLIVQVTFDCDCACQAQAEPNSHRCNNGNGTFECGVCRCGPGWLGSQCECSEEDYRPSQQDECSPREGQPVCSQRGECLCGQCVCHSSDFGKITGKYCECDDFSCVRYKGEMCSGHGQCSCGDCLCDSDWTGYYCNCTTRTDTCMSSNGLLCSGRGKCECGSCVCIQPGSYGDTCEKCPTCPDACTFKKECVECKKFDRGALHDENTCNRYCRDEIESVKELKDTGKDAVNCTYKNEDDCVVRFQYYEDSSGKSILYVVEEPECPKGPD

| Sequence | Kd (n = selected N40 region [n positions 19 = modified dU], Bmax 0.45) | Kd (n = random N40 [n positions 19 = modified dU], Bmax 3.23E-11, essentially no binding) |
| --- | --- | --- |
| TCAGCCGCCAGCCAGTTCTGACCAGAGCACCACAGAG [Round 8 SELEX pool] | 0.0433 µM |  |
| TCAGCCGCCAGCCAGTTCTGACCAGAGCACCACAGAG [Starting benzyl-dU random library] |  | 6.5 µM |

From US20150359911
